Here are results for 4 molecules from US8324344B2, “Membrane transduction peptides and methods of delivering material to a target cell” (STC.UNM, priority 2008, dated 2012).

“Also recorded” adds a separate entry of the source.

The test system of experiment [1] is HT-1080 cells. Put plainly: Internalization of offered recombinant proteins in HT-1080 cells, immunoblotting of cytosolic and nuclear fractions. The format is cell-based, human. The settings on record: 1 μM; for Internalization to cytosol and nucleus of HT-1080 cells: 37° C. As for the experimental part:
HT-1080 cells were grown in six-well plates under standard conditions. At confluence, the cells were treated with fresh medium containing either wild-type TFPI-2, TFPI-2^1-188, R24Q KD1, R24K KD1, or R24K KD1-CT as previously described (Kempaiah and Kisiel, Apoptosis, 2008;13:702-715). Briefly, duplicate wells were treated with purified proteins (1 μM final concentration) and incubated at either 37° C. or 4° C. for different time periods. Two wells were also treated with phosphate-buffered saline (PBS) at each temperature to serve as a control. At selected time points, the media was removed and the cells were rinsed once with PBS. The cells were then washed with 1 M NaCl/PBS for 30 minutes with gentle shaking to dissociate cell surface-bound proteins (Iino et al., Arterioscler. Thromb. Vasc. Biol., 1998;18:40-46). Finally, the cells were rinsed once with PBS, trypsinized and harvested for the preparation of cell lysates and cell fractions.
To prepare total cell lysates, 1-3×10^6 cells were lysed by sonication in 500 μl of lysis buffer containing of 125 mM Tris-HCl (pH 6.8), 2% SDS, 10% glycerol, 50 mM sodium phosphate, 1 mM phenylmethanesulphonylfluoride (PMSF) and protease inhibitor cocktail. The lysate was kept on ice for about 10 minutes, centrifuged for 15 minutes at 10,000×g at 4° C., and the supernatant recovered. To prepare nuclear and cytosolic fractions, approximately 2×10^6 cells were harvested and washed twice with cold PBS by centrifugation at 600×g in a Beckman J-6M/E centrifuge for seven minutes at 4° C. Five volumes of ice cold cytosolic buffer (10 mM Hepes pH 7.4, 0.33 M sucrose, 1 mM MgCl2, 0.1% Triton X-100 and protease inhibitor cocktail) was added to the cells and incubated on ice for 15 minutes. The cytosolic fraction was collected by centrifugation at 900×g for five minutes at 4° C. The resulting undissolved pellet was washed twice with cytosolic buffer followed by centrifugation at 900×g for five minutes at 4° C. Finally, the resulting pellet was resuspended in five volumes of ice cold buffer containing 0.45 M NaCl in 10 mM Hepes (pH 7.4) and protease inhibitor cocktail. The suspension was incubated on ice for an additional 15 minutes to dissolve the nucleus, and subsequently centrifuged at 18,000×g for five minutes at 4° C. The resulting supernatant was collected as the nuclear extract. All samples were boiled for three minutes in the presence of 5% SDS and stored at −20° C. until use.
The cell lysate, cytosol and nuclear fractions were subjected to SDS-PAGE using 4-20% polyacrylamide gradient gels. […] The membranes were then probed with specific antibodies dissolved in fresh blocking buffer. Immunoreactive proteins were identified using HRP-conjugated secondary antibodies and a chemiluminescent reagent system essentially as described (Kempaiah et al., Mol. Cancer, 2007;6:20). The integrity of the cytosolic and nuclear fractions was verified using anti-α-tubulin and anti-histone-H1 antibodies, respectively (Guo et al., Am. J Physiol. Cell Physiol., 2007;292:2095-2102).
The relative intensity of the Western blot bands were quantified using QUANTISCAN software (Biosoft, Cambridge, U.K.). The intensities are reported in arbitrary units (A.U.) obtained by subtracting the background value from the corresponding band's mean value.

Experiment [2] relates to HT-1080 cells. Put plainly: Localization of protein in stably-transfected overexpressing HT-1080 cells, immunoblotting and immunocytochemistry. The format is cell-based, human. Conditions: HT-1080 cells stably transfected with cDNA (FIG. 3, FIG. 4C, 4D). The method, then: HT-1080 and HEK 293 cell lines were stably transfected to overexpress either wild-type human TFPI-2 or a mutant TFPI-2 construct lacking the carboxy-terminal tail (TFPI-2^1-188), and were maintained as described (Chand et al., Blood, 2004;103:1069-1077, Du et al., Arch. Biochem. Biophys:, 2003;417:96-104). An anti-human TFPI-2 murine monoclonal antibody designated as SK-9 was prepared as described (Du et al., Arch. Biochem. Biophys., 2003;417:96-104) and coupled to Affi-Gel 10 according to the manufacturer's recommendation. Recombinant human TFPI-2 was purified from HEK 293 serum-free conditioned media by a two-step chromatography procedure involving heparin-agarose (Sprecher et al., Proc. Natl. Acad. Sci. USA., 1994;91:3353-3357) and SK-9-AffiGel 10 affinity chromatography. In the latter procedure, heparin-agarose purified TFPI-2 was dialyzed against 50 mM Tris-HCl (pH 7.5) and applied to the SK-9-AffiGel 10 column equilibrated at room temperature with this buffer. After a wash step with 50 mM Tris-HCl (pH 7.5)/0.5 M NaCl, TFPI-2 was eluted with 0.1 M glycine (pH 2.5)/0.5 M NaCl into one-tenth volume of 1 M Tris-HCl (pH 8.8) to immediately neutralize the pH 2.5 glycine. […]
(In western blotting, separated proteins are transferred to a membrane and probed.)

The subject of another experiment is human tumor cell lines. The settings on record: cited from earlier work.
The subject of experiment [3] is HT-1080 cells. The experiment is described as follows: Confocal microscopy of Alexa Fluor 488-conjugated TFPI-2 internalization in HT-1080 cells. The format is cell-based, human. The settings on record: 50 μg/ml. As for the experimental part:
The internalization of recombinant TFPI-2 in HT-1080 cells was assessed by confocal microscopy using a Zeiss LSM510-META microscope and Alexa Fluor 488-conjugated TFPI-2. Approximately 0.5 mg of recombinant TFPI-2 protein was labeled with Alexa Fluor 488 dye following the manufacturer's instructions. Alexa Fluor-conjugated protein (50 μg/ml) was added to two sets of HT-1080 cells that were grown to confluence in two-chamber culture slides and incubated either at 37° C. or 4° C. for different time periods. Cells were then washed twice with cold PBS and fixed with 4% paraformaldehyde solution for 15 minutes. The slides were further rinsed twice with cold PBS, treated with a drop of mounting medium containing 4′,6-diamidino-2-phenylindole (DAPI), and covered with a coverslip for confocal microscopy.

Where [4] appears, read: five minutes, immunoblot (FIG. 4B).

B1: R24K KD1-CT: Chimera of first Kunitz-type domain (amino acids 1-73, R24K) and carboxy-terminal tail (amino acids 187-213) of TFPI-2, SEQ ID NO:2 (protein)
chain: DAAQEPTGNNAEICLLPLDYGPCRALLLRYYYDRYTQSCRQFLYGGCEGNANNFYTWEACDDACWRIEKVPKVEFAKALKKKKKMPKLRFASRIRKIRKKQF
modifications: chimera of the first Kunitz-type domain (with the R24K mutation) and the carboxy-terminal tail
As to B1, the “Internalization to cytosol and nucleus of HT-1080 cells” value (“Internalization to cytosol and nucleus” for short) was “is internalized to both the cytosol and nuclear fractions; also recorded: rapidly internalized and translocated to the nucleus” with HT-1080 cells [1] (setting [4]); “internalized and translocated to the nucleus within minutes” in the experiment on HT-1080 cells [1] (five minutes, immunoblot (FIG. 4B), listed as R24KD 1-CT).

B2: TFPI-2^1-188: TFPI-2 construct lacking the carboxy-terminal tail (amino acids 189-213 of SEQ ID NO:1) (protein, listed as Homo sapiens)
chain: DAAQEPTGNNAEICLLPLDYGPCRALLLRYYYDRYTQSCRQFLYGGCEGNANNFYTWEACDDACWRIEKVPKVCRLQVSVDDQCEGSTEKYFFNLSSMTCEKFFSGGCHRNRIENRFPDEATCMGFCAPKKIPSFCYSPKDEGLCSANVTRYYFNPRYRTCDAFTYTGCGGNDNNFVSREDCKRACAK
modifications: tissue factor pathway inhibitor-2
With B2, the “Internalization to cytosol and nucleus” value in the experiment on HT-1080 cells [1] (up to 30 minutes, immunoblot (FIG. 4A)) is listed as “is not internalized as readily to either the cytosol or nucleus; also recorded: slowly internalized, but failed to be transported to the nucleus”. Also, the “Localization of overexpressed protein” value with HT-1080 cells [2] is on record as “failed to demonstrate nuclear localization; also recorded: confined to the cytoplasm”.

B3: R24K KD1: Mutated first Kunitz-type domain of TFPI-2 (R24K), recombinant (protein)
chain: DAAQEPTGNNAEICLLPLDYGPCKALLLRYYYDRYTQSCRQFLYGGCEGNANNFYTWEACDDACWRIEKVPKV
modifications: left off: small tags and cut ends
notes: Mutated first Kunitz-type domain of TFPI-2 (R24K), recombinant
For B3, the “Internalization to cytosol and nucleus” value with HT-1080 cells [1] (setting [4]) was “is not internalized to either the cytosol or nucleus; also recorded: failed to enter the cells”. In the experiment with HT-1080 cells [1] (48-hour incubation at 37° C.), the “Internalization by HT-1080 cells after 48-hour incubation” value was “failed to be internalized”. In addition, in the experiment on human tumor cell lines, the “Apoptosis induction potency relative to TFPI-2” value is given as “more potent inducer of apoptosis than TFPI-2”. Besides, the “Induction of caspase-mediated apoptosis” value in the experiment with human tumor cell lines (several tumor cell lines, exogenously offered, Kempaiah and Kisiel 2008) is “induce caspase-mediated apoptosis”.

B4: Alexa Fluor 488-conjugated TFPI-2: Recombinant TFPI-2 protein labeled with Alexa Fluor 488 dye (conjugate, UniProt P48307 23-235, looked up)
Tissue factor pathway …: DAAQEPTGNNAEICLLPLDYGPCRALLLRYYYDRYTQSCRQFLYGGCEGNANNFYTWEACDDACWRIEKVPKVCRLQVSVDDQCEGSTEKYFFNLSSMTCEKFFSGGCHRNRIENRFPDEATCMGFCAPKKIPSFCYSPKDEGLCSANVTRYYFNPRYRTCDAFTYTGCGGNDNNFVSREDCKRACAKALKKKKKMPKLRFASRIRKIRKKQF
modifications: Alexa Fluor 488 label
notes: Recombinant TFPI-2 protein labeled with Alexa Fluor 488 dye
Turning to B4, the “Intracellular localization by confocal microscopy” value in the experiment with HT-1080 cells [3] (4° C., five minutes and 10 minutes (FIG. 1D)) is “limited punctate distribution of TFPI-2 in the cytosol”; in the experiment with HT-1080 cells [3] (4° C., two hour time point (FIG. 1D)), “significant cytosolic and nuclear-associated TFPI-2”; in the experiment on HT-1080 cells [3] (two-hour incubation at 37° C. (FIG. 1B)), “cytosolic and nuclear localization of TFPI-2; also recorded: uniform distribution of TFPI-2”.
